Laboratory results taken from paper PMC10491405 (PLOS Pathogens, 2023).

B1: human monoclonal stem antibody FI6v3 (antibody, V domains shown)
VH: QVQLVESGGGVVQPGRSLRLSCAASGFTFSTYAMHWVRQAPGKGLEWVAVISYDANYKYYADSVKGRFTISRDNSKNTLYLQMNSLRAEDTAVYYCAKDSQLRSLLYFEWLSQGYFDYWGQGTLVTVSS
VL: not shown
notes: also called mAb FI6v3; source: VRC, NIH
B2: mouse monoclonal stem antibody C179 (antibody, V domains shown)
VH: EVKLVESGGGLVQPGGSLRLSCGTSGFTLTDDYMTWVRQPPGKALEWLGFIRDRANGYTTEYSASVKGRFTISRDNSQSIVYLQMNTLRVEDSATYYCARPKGYFPYAMDYWGQGTSVIVSS
VL: DIQMTQSPASQSASLGESVTITCLASQTIGTWLAWYQQKPGKSPQLLIYAATSLADGVPSRFSGSGSGTKFSFKISSLQAEDFVSYYCQQLYSTPWTFGGGTRLEIK
notes: source: purified from hybridoma from mouse ascitic fluid

Legend:
Assay in all cases: ELISA
Settings in all cases: both partners purified
[1] = molecular target: T1, full-length recombinant H1 HA protein (A/California/07/09, H1N1) (Influenza A virus A/California/07/2009 …, UniProt C3W5X2)
T1 construct: source: bought: Protein Sciences Corporation (purified recombinant full-length HA)

[2] = molecular target: T2, H1 rHA ectodomain (trimeric HA ectodomain, A/California/07/09, H1N1) (Influenza A virus A/California/07/2009 …, UniProt C3W5X2)
T2 construct: source: bought: International Reagent Resource and Sino Biological (HA ectodomains)

[3] = molecular target: recombinant HA1 head protein (rHA1) of H1 HA (A/California/07/09, H1N1) (Influenza A virus A/California/07/2009 …, UniProt C3W5X2)

Binder | binding result [1] | binding result [2] | binding result [3]
B1 | binds |  | 
B2 | binds | binds | no binding (tested: 0.5 μg/ml)
